According to publication PMC12720113, “The binding mechanism of a novel ferrous ion chelating peptide from chicken blood hemoglobin and the bioavailability of the chelate” (Food Chemistry: X, 2025):

System: Caco-2 cells
Test: Caco-2 cell viability assay (MTT)
Format: cell-based
Conditions: 24 h, 490 nm, means ± SEM
Procedure: Caco-2 cell viability assay was conducted on […]-Fe according to the method of [Wu et al. (2019)]. And lactoferrin was chosen as an experimental control. When the cell fusion rate was close to 80 %, the cells were dissociated and passaged using the trypsin-EDTA mixed digest. Cultivate the 23rd generation of cells in the logarithmic growth phase at 37 °C and 5 % CO₂ for 24 h. Then, a gradient concentration of […]-Fe and Ac-[…]-Fe was added to the wells of the experimental group, and all the samples were incubated for 24 h. After incubation, 20 μL of MTT reagent was added to each well. After 2 h of reaction, 150 μL of DMSO was added and agitated for 10 min. The absorbance values at 490 nm were measured to reflect cell activity levels. Cell relative activity (%) was calculated:(3) Relative cell viability%=As−Ab/Ac−Ab×100 where: As represents the absorbance value of the sample treatment, Ab represents the absorbance value without cells, and Ac represents the absorbance value without sample treatment.

B1: lactoferrin (protein, UniProt P24627 20-708, looked up)
Lactotransferrin: APRKNVRWCTISQPEWFKCRRWQWRMKKLGAPSITCVRRAFALECIRAIAEKKADAVTLDGGMVFEAGRDPYKLRPVAAEIYGTKESPQTHYYAVAVVKKGSNFQLDQLQGRKSCHTGLGRSAGWIIPMGILRPYLSWTESLEPLQGAVAKFFSASCVPCIDRQAYPNLCQLCKGEGENQCACSSREPYFGYSGAFKCLQDGAGDVAFVKETTVFENLPEKADRDQYELLCLNNSRAPVDAFKECHLAQVPSHAVVARSVDGKEDLIWKLLSKAQEKFGKNKSRSFQLFGSPPGQRDLLFKDSALGFLRIPSKVDSALYLGSRYLTTLKNLRETAEEVKARYTRVVWCAVGPEEQKKCQQWSQQSGQNVTCATASTTDDCIVLVLKGEADALNLDGGYIYTAGKCGLVPVLAENRKSSKHSSLDCVLRPTEGYLAVAVVKKANEGLTWNSLKDKKSCHTAVDRTAGWNIPMGLIVNQTGSCAFDEFFSQSCAPGADPKSRLCALCAGDDQGLDKCVPNSKEKYYGYTGAFRCLAEDVGDVAFVKNDTVWENTNGESTADWAKNLNREDFRLLCLDGTRKPVTEAQSCHLAVAPNHAVVSRSDRAAHVKQVLLHQQALFGKNGKNCPDKFCLFKSETKNLLFNDNTECLAKLGGRPTYEEYLGTEYVTAIANLKKCSTSPLLEACAFLTR
notes: conventional iron supplement, experimental control
In the case of B1, the “Relative vitality of cells (%)” value (Caco-2, 0.125 mg/mL) is reported as 92.86 ± 1.03%, the “Relative vitality of cells (%)” value (Caco-2, 0.25 mg/mL) is reported as 81.43 ± 0.94% and the “Relative vitality of cells (%)” value (Caco-2, 0.5 mg/mL) is reported as 77.76 ± 1.27%. For the same molecule, the “Relative vitality of cells (%)” value (Caco-2, 1 mg/mL) was 74.83 ± 0.84% and the “Relative vitality of cells (%)” value (Caco-2, 2 mg/mL) was 66.90 ± 1.42%.
